For test [1], the target named is T1, recombinant human TFPI (tissue factor pathway inhibitor) (human, UniProt P10646 29-304). Nature of the test: cell-based or functional assay.
Test [2] deals with T1, recombinant human TFPI (tissue factor …). Nature of the test: cell-based or functional assay. This is another data set of the same source.
For test [3] the target is unchanged. Put plainly: cell-based or functional assay. This is another data set of the same source.
Test [4] shares this target. Put plainly: cell-based or functional assay. The source holds these as a separate data set.
The target is the same in test [5]. Nature of the test: SPR, Biacore T-200; IgG captured on protein A (CM5), TFPI as analyte. Here is the method:
Dissociation of the TFPI associated with the antibody was induced by running 10 mM glycine-HCl (pH 1.5) at a flow rate for 30 seconds. The affinities in terms of kinetic rate constants (Kₒₙ and Koff) and equilibrium dissociation constant (KD) were evaluated using Biacore T-200 evaluation software, and the results are shown in Table 24 below.
Background: Surface plasmon resonance follows binding to a sensor surface in real time, without labels.

B1: clone 3241 (antibody, V domains shown)
VH: EVQLVESGGGLVKPGGSLRLSCAASGFTFSSYAMNWVRQAPGKGLEWVSTITTGGSYTYYADSVEGRFTISRDNAKNSLYLQMNSLRAEDTAVYYCARQDGNFLMDYWGQGTLVTVSS
VL: DVVMTQTPLSLPVTLGQPASISCKSSQSLLDIDGKTYLNWLQQRPGQSPKRLIYLVSKLDSGVPDRFTGSGSGTDFTLKISRVEAEDVGVYYCWQGTHFPFTFGQGTKVEIKR
notes: scFv on yeast at selection; human IgG4/kappa IgG as purified; also called No. 3241 antibody
As to B1, in test [1], the “effect of inhibiting TFPI, FXa activity assay, Ab 10 nM” value is around 83% and the “effect of inhibiting TFPI, FXa activity assay, Ab 20 nM” value was around 82%. In addition, in test [2], the “A405, TF/FVIIa/FX complex assay, Ab 1.56 nM” value amounted to 0.157; the “A405, TF/FVIIa/FX complex assay, Ab 3.13 nM” value came to 0.171; the “A405, TF/FVIIa/FX complex assay, Ab 6.25 nM” value was determined as 0.197; the “A405, TF/FVIIa/FX complex assay, Ab 12.5 nM” value was determined as 0.305. In addition, in test [2], the “A405, TF/FVIIa/FX complex assay, Ab 25 nM” value turned out to be 0.911; the “A405, TF/FVIIa/FX complex assay, Ab 50 nM” value was found to be 0.935; the “A405, TF/FVIIa/FX complex assay, Ab 100 nM” value is 0.937. For the same molecule, in test [3], the “% of Normalized, TF/FVIIa/FX complex assay, Ab 1.56 nM” value was 17.2%; the “% of Normalized, TF/FVIIa/FX complex assay, Ab 3.13 nM” value stood at 18.7%; the “% of Normalized, TF/FVIIa/FX complex assay, Ab 6.25 nM” value worked out at 21.5%; the “% of Normalized, TF/FVIIa/FX complex assay, Ab 12.5 nM” value amounted to 33.3%. Moreover, in test [3], the “% of Normalized, TF/FVIIa/FX complex assay, Ab 25 nM” value amounted to 99.6%; the “% of Normalized, TF/FVIIa/FX complex assay, Ab 50 nM” value amounted to 102%; the “% of Normalized, TF/FVIIa/FX complex assay, Ab 100 nM” value was found to be 102%. Further, in test [4], the “FXa assay % of FXa alone, 2.5 nM Ab, 10 nM TFPI” value was found to be 11.2%; the “FXa assay % of FXa alone, 5 nM Ab, 10 nM TFPI” value is 50.9%; the “FXa assay OD, 2.5 nM Ab, 10 nM TFPI” value amounted to 0.091; the “FXa assay OD, 5 nM Ab, 10 nM TFPI” value came to 0.413. In addition, in test [4], the “FXa assay OD, 10 nM Ab, 10 nM TFPI” value was found to be 0.677 and the “FXa assay OD, 20 nM Ab, 10 nM TFPI” value turned out to be 0.665. For the same molecule, the Kd in test [5] came out at 0.074 nM.

Broadly, the Kd is a measure of binding affinity in units of concentration.

These data come from patent publication US20180030151A1 (MOGAM INSTITUTE FOR BIOMEDICAL RESEARCH, published 2018).
